{"source": "patent US5298404", "key": {"[1]": {"system": "HpaI restriction endonuclease (native) (Haemophilus parainfluenzae)", "test": "cleavage_in_vitro", "conditions": "10 mM Tris pH 7.5, 10 mM MgCl2, 100 mM NaCl, 37 C"}, "[2]": {"system": "HpaI restriction endonuclease (recombinant) (Haemophilus parainfluenzae)", "test": "cleavage_in_vitro", "conditions": "assay as for native enzyme; Mg2+, 37 C"}}}
{"substance": "phage lambda DNA", "values": [{"measurement": "activity", "setting": "[1]", "result": 250000, "unit": "units/mg"}, {"measurement": "activity", "setting": "[2]", "result": 250000, "unit": "units/mg"}]}
